From patent publication US20170298425 come the findings set out here.

Holding throughout (test): cell_activity
Series [1] deals with TcI (cI857, A67T) (bacteriophage lambda) (UniProt P03034). Particulars: GFP derepression fold change 34.2 to 40 C, E. coli; SEM 404; text gives >1432.
For series [2], the target named is TcI38 (bacteriophage lambda) (UniProt P03034). Particulars: GFP derepression fold change 32.4 to 40 C, E. coli; SEM 160.
Series [3] addresses TcI42 (bacteriophage lambda) (UniProt P03034). Particulars: GFP derepression fold change 32.4 to 45.7 C, E. coli; SEM 444.
Series [4] concerns TlpA (in cell) (Salmonella enterica). The conditions noted are these: GFP derepression fold change 31.4 to 44.6 C, E. coli; SEM 45.
Series [5] has as its system TlpA36 (Salmonella enterica). Particulars: GFP derepression fold change 31.4 to 44.6 C, E. coli; SEM 63.
Series [6] deals with TlpA39 (Salmonella enterica). Particulars: GFP derepression fold change 31.4 to 44.6 C, E. coli; SEM 434.

lambda tandem pR/pL operator/promoter: the figures for the activity in series [1], in series [2] and in series [3] were 1430 fold, 1030 fold and 1690 fold, respectively.
pTlpA operator/promoter, 52 bp: the activity in series [4] came out at 355 fold; in series [5], 370 fold; in series [6], 1520 fold.
